{
  "source": "paper PMC5082683",
  "about": "(PLoS Pathogens, 2016)",
  "binders": {"B1": {"name": "scFv A5 (scFv, V domains shown)", "VH": "QVQLQESGPGLVKPSETLSLTCVVSGGSISSSNWWSWVRQPPGKGLEWIGEIYHSGSPNYNPSLKSRVTISVDKSKNQFSLKLSSVTAADTAVYYCARQMRQWGQGTLVTVSS", "VL": "SSELTQDPAVSVALGQTVRITCQGDSLRSYYASWYQQKPGQAPVLVIYGKNNRPSGIPDRFSGSSSGNTASLTITGAQAEDEADYYCNSRDSSGNHNVFGGGTKLTVL", "notes": "also called human single-chain variable domain antibody fragment A5"}},
  "target": "recombinant ectodomain of Gc (rGc) from Hantaan virus strain 76-118 (Hantaan virus strain 76-118, UniProt P08668)",
  "assay": "SEC-MALS; Gc mixed with an excess of scFv A5, Tris pH 8",
  "settings": "both partners purified",
  "data": [
    {"binder": "B1", "values": [
      {"measurement": "stoichiometry N", "value": 1}
    ]}
  ]
}
